Measurements taken from the nanobody polyreactivity screen of Harvey et al. (2022).

test: yeast display, Sf9 membrane polyspecificity reagent, FACS + sequencing; frameworks hold sequencing errors
In short: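 Polyreactivity labels are assigned by the sorting gate from which each nanobody was recovered. The gates were low and high (top ~1%), set on anti-HA fluorescence for expression and streptavidin fluorescence for reagent binding. Before sorting, galactose-induced (36–48 hours) yeast display cells were stained for 1 hour at 4 °C with 10% biotinylated, detergent-solubilized Sf9 membrane reagent.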

Sequence	polyreactivity (PSR sort gate)
QVQLVESGGGLVQAGGSLRLSCAASGRIFGRYAMGWYRQAPGKDRELVAAITYSGGSTYYADSVKGRFTISRDNAKNTVYFQMNSLKPEDTALYYCNAVAYRSRGPHFNYWGQGTQVTVST	high polyreactivity
QVQLVESGGGLVQAGGSLRLSCASSGNIFVPNAMGGYRQAPGKERELVAAIRRGGSTNYADSVKGRFTISRDNAQNTVDGQMNSLKPEDTAVYYCAKSRVSFTDLEGYYWGQGTQVTVSS	low polyreactivity
QVQLVESGGVLVQAGGSLRLSCAASGSTFKPYAMGWYRQAPGKEREFVAANSRGTRTYADSVKGRFTISRDNAKNTVSLPMNSLKPEDTAVYYCAAEWSWIFGYHYEYDYGGQGTQVTVSS	low polyreactivity
QLQLVESGGGLVQAGGSLPLTCAASGRTFARNAMGWYRQAPGKERELVARISRRAGSTYYADSVKGRFTISRDNAKNTVYLQMNSLKPAETAVYYCNAGPPYSYARDYWGQGTQVTVSS	high polyreactivity
QVQLVESGGGLVQAGGSLRLSCAASGFTFRVNAMGWYRQAPGKERELVAAISWTGGSTYYADSVKGRFTISRDNAKNTVYLQMNSLKPEDTAVYYCATRFGGRYNEFGFWGQGTQVTVSS	low polyreactivity
QVQLVESGGGLVQAGGSLRLSCAASGRIFGYYAMGWYRQAPGKERELVASITNGASTNYADSVKGRFTISRDNAKNTVYLQMNSLKPEDTAVYYWNARRGSRRFGYWGQGTQVTVSS	high polyreactivity
QVQLVESGGGLVQAGGSLRLSCAASGRTFKSYAMGWYRQAPGKERELVAAISYSGGSTYYADSVKGRFTISRDNAKNTVYLQMNSLKPEDTAVYYCNVVSKVIRGLSGDGYWGQGTQVTVSS	high polyreactivity
QVQLVESGGGLVQAGGSLRLSCAASGGIFSQYAMGWYRQAPGKERELVAAINSGVGTNYADSVKGRFTISRDNAKNTVFLQMNSLKPEDTAVYYCAATDDRLWTFDVASYRNDYWGQGTQVTVSS	low polyreactivity
QVQLVESGGGLVQAGGSLRLSCAASGIIFGHYAMGWYRQAPGKERELVAAIRSSGGTTYYADSVKGRFTISRDNAKNTVYLQMNSLKPEDTAVYYCAKRGVHLYHDYYWGQGTQVTVSS	low polyreactivity
QVQLVESGGGLVQAGGSLRLSCAASGSTFDYYAMVWYRQAPGKEREFVAAISYSGGSTYYADSVKGRFTISRDNAKNTVYLQMNSLKPEDTAVYYCAAEGYYYNLYYWGQGTEVTVSS	high polyreactivity
QDQLVESGGGLVQAGGTLRLRCAATGSTVYPTYAMGWYRQAPGKEWELVATITGSGGYTYYADSVKGRFTISRDNAKNTVYLQINSLKPEDTAVYYCAADRWYSRYTRYGYRGQGTQVTVSS	low polyreactivity
QVQLVESGGGLVQAGGSLRLSCAASGSTFRRNVMGWYRQAPGKEREFVAAISYRTGSTYYADSVKGRFTISRDNAKNTVYLQMNSLKPEDTAVYYCAASSQWVGYYYWGQGTQVTVSS	high polyreactivity
QVQLVESGGGLVQAGGSLRLSCAASGSIFYGFDMGWYRQAPGKERELVATISWSSGSSTYYADTVKGRFTISRDNAKNTVYLQMNSLKPEETAVYYCAVDFAIGYRYQGRVDYWGQGTQVTVSS	low polyreactivity
QDQLEESVGGLVQAGGSLRLSCAASGSTFSYYAMGWYRQATGKERELVAAISTLGSSTYYADSVKGRFTISRDNAKNTVNLQMNSLKPEDTAVYYCAVDQYKYDWFYDYYGYTYVYWGQGTQVTVSS	high polyreactivity
QVQLVESGGGLVQAGGSLRLSCAASGLTFDGNTMGWYRQAPGKERELVAAISFDGGNTYADSVKGRFTISRDNAKNTVYLQMISLKPEDTAVYYDYWGQGNQVTVSS	low polyreactivity
QVQLVESGGGLVQAGGSLRLSCAASGRTLSGNAMGWYRQAPGKERELVASISTSTDGTYYADSVKGRFTISRDNAKNTVYLQMNSLKPEDTAVYYCTTTTYHWYYYRWEIFDYWGQGTQVTVSS	low polyreactivity

Sequence	polyreactivity (PSR sort gate)
QVQLVESGGGLVQAGGSLRLSCAASGRTFYPNTMGWYRQAPGKERELVATITRSGGTTYADSVKGRFTISRDNAKNTVYLQMHSLKPEDTAVYYCNADQRRYYWLVSQRYDYWGQGTQVTVSS	low polyreactivity
QVQLVESGGGLVQAGGSLRLSCAASGSIFSTYAMGWYRQAPGKERELVAALDDDGGSTYYADSVKGRFTISRDNAKNTVYLQMNSLKPEDTAVYYCNADYDGNGWAGDYSDSYDYWGQGTQVTVSS	low polyreactivity
QVQLVESGGALVLAGGSLRLSCAASGFTFQYYAMGWYRQAPGKERELVAAIDWTGGSTYYADSVKGRFTISRDNAKNTVYLQMNSLKPEDTAVYFCNRELTSPRRWHVSRAYDYWGQGTQVTVSS	low polyreactivity
QVQLVESGGGLVQAGGSLRLSCAASGGIFSGNDMGWYRQAPGKERELVATITYSGGTTYYADSVKGRFTISRDNAKNTVYLQMNSLKPEDTAVYYCAADEYGPHTFSPEYDSWGQGTQVTVSS	low polyreactivity
QVQLVESGGGLVQAGGSLRLSCAASGRTFGRYVMGWYIQAPGKERELVAAIRWSGGTTYYADSVKGRFTISRDNAKNTVYLQMNSLKPEDTAVYYCAARWGPYYGGVRYGYWGQGTQVTVSS	high polyreactivity
QVQLVESGGGLVQAGGSLRLSCAASGSIFWYYAMGWYRQAPGKERELVAAISSGGSTYYADSVKGRFTISRDNAKNTVYLQMNSLKPEDTAVYYCAAGAFGQILNYWGQGTQVTVSS	high polyreactivity
QVQLVESGGGLVQAGGSLRLSCAASGCTSTSNAMGWYRQAPGKERELVALISSGGSTYYAVSVKGRFTISRDNAKNTVYLQMNSLKQEDTAVYYCAARRGTGSYSYRYPYGYDYWGQGTQVTVSS	low polyreactivity
QVQLEDSGGGLVQAGGSLRLSCAASGRIFTRYAMGWYRQAPGKERELVAVITRSGGSTYYADSVKGRFTISRDNAKNTVYLQMNSLKPEDTAVYYCAARYYWSVYADQGDYWGQGTQVTVSS	low polyreactivity
QVQLVESGGGLVQAGGSLRLSCAASGRIFQQYAMGWSRKAPGKERELVAAISRNGGSTYYADSVKGRFTISRDNAKNTVYLQMNRLKTEDTAVYYCNARRNAASTLRKDYGYWGQGTQVSVSS	high polyreactivity
QVQLVESGGGLVQAGGSLRLSCAASGRIFFRNVMGWYRQAPGKERELVATITSGGRTYYADSVKGRFTISRDNAKNTVYLQMNSLKPEDTAVYYCAAKRYLHRREYWGQGTQVTVSS	high polyreactivity
QVQLVESGGGLVQAGGSLRLSCAASGFIFWYNAMGWYRPAPGKEREFVAAISSGGSTTYADSVKGRFTISRDNAKNTVYLQMNSLKPEDTAVYYCAAGSYDYDYWGQGTQVTVSS	low polyreactivity
QVQLVESGGGLVQAGGSLRLSCAASGFTLADNTMGWYRQAPGKERQLVATISSDGNTNYADSVKGRFTISRDNAKNTVYLQMNSLKPEDTAVYYCNAEGVFGDVRSGFYWYDYWGQGTQVTVSS	low polyreactivity
QVQLVESGGGLVQAGGSLRLSCAASGRTFYGNAMGWYRQAPGKERELVAAISWSGCGTYYADSVKGRFTISRDNAKNTVYLQMNSLKPEDTAVYYCARTLFGRSANRYGYWGQGTQVTVSS	high polyreactivity
QVQLVESGGGLVQAGGSLRLSCAASGFIFVLYAMGWDRQAPGKERELVAAINGGSSTNYADSVKGRFTISRDNAKNTVYLQMNSLKPEDTAVYYCAADVIPDGVKKPRMYYWGQGTQVTVSS	low polyreactivity
QVQLVESGGGLVQAGGSLRLSCAASGRIFDVYAMGWYRQAPGKERELVATISSSGGATYYADSVKGRFTISRDNAKNTVYLQMNSLKPEDTAVYYCATTYRPTFRRHYNYWGQGTQVTVSS	low polyreactivity
